How the values were obtained:
[1] = cited from earlier work
animals = conditions: cited from earlier work
[2] = Aging of glucagon in glycine buffer at 37° C, analysed by LCMS; assay type: physicochemical

glucagon
aggregation at alkaline pH vs acid pH [1]: much less prone to aggregation than glucagon prepared at acid pH
bioactivity of fibrillated glucagon given to animals (animals): retains much of its bioactivity
width of main LCMS peak, glucagon aged at pH 10 ([2]; 1 mg/ml in glycine buffer pH 10, 7 days at 37° C, reverse-phase LCMS): 3 min
deamidation events after aging, pH 10 vs pH 9 ([2]; aged 7 days at 37° C, least-squares fitting of isotopic distribution of the m/z spectrum): more deamidation events than pH 9
width of main LCMS peak, fresh glucagon ([2]; unaged glucagon, reverse-phase LCMS): 1 min
